B1: LINE1-full (parent)
chain: UACGUAGGUGGUUUUCCCCUGAUAGUGCUAAGGGGGCCUGGAAGUUUGGACUGGGCAGAGCUCAACACAGCGUGGCAAAGUGGCUGUGGCUAGACUGCCUCUCUGGAUUCCUCGUCACUCAGCAGGGCAUCUCUGAGAGAAAUGCC

In the data set the parent is B1. The data set can be described thus: self-cleavage, relative activity (ratio to wild type); higher = more cleavage; in vitro, sequencing; the parent is a self-cleaving ribozyme.
Take U13C U46A: the self-cleavage was 1.13.
In the case of U13C U46G, the self-cleavage turned out to be 1.31.
U13C U23C: the self-cleavage is 0.41.
Turning to U12G U143C, the self-cleavage is 1.23.
As to U13C A69U, the self-cleavage came to 0.1.
Turning to U12G U119C, the self-cleavage was determined as 1.34.
The same measure for U12G U119A: 1.32; for U13C C98U: 0.35.
For U13C C98G, the self-cleavage turned out to be 0.15.
The same measure for U12G U81C: 0.86; for U13C G54U: 0.6; for U13C G54A: 0.62.
The result for U13A A24G reads 0.53; that for U12G U108G, 0.82; that for U13C G72A, 1.22.
Take U12C C84U: the self-cleavage stood at 0.15.
U13A U132G: the self-cleavage worked out at 0.6.
For U13A U132A, the self-cleavage was 0.87.
The result for U13A U132C reads 0.98.
Turning to U12G A141G, the self-cleavage was determined as 1.22.
In the case of U13A A121U, the self-cleavage stood at 1.12.
On to U12C G93A, for which the self-cleavage was determined as 0.08.
The result for U13A U29A reads 0.42; that for U12C G41A, 1.26; that for U12C U96A, 0.1.
For U12C U96C, the self-cleavage is 0.19.
Regarding U13C C103U, the self-cleavage was 1.06.
For U13C C103A, the self-cleavage was 1.
U12G A142C: the self-cleavage amounted to 0.93.
As for U12G A142G, the self-cleavage was found to be 0.83.
Turning to U12G G114A, the self-cleavage came out at 1.07.
U13A A59U: the self-cleavage was found to be 0.44.
In the case of U12C U46C, the self-cleavage is 1.62.
U12C G35A: the self-cleavage is 1.62.
For the variant U13C U39C, the self-cleavage worked out at 1.08.
Turning to U13A U81A, the self-cleavage came out at 1.81.
For the variant U13A U81C, the self-cleavage is 0.85.
In the case of U13C A107C, the self-cleavage was 0.94.
On to U13C A107G, for which the self-cleavage came to 1.39.
For the variant U13A C71G, the self-cleavage was 0.2.
On to U12G C84U, for which the self-cleavage was 0.2.
Take U12C U119G: the self-cleavage was found to be 1.5.
The result for U12C U119C reads 1.64; that for U12C G75A, 1.46; that for U12C G97A, 0.22.
In the case of U13C A24U, the self-cleavage was determined as 1.11.
Turning to U13C A57G, the self-cleavage stood at 0.76.
On to U13C A57U, for which the self-cleavage was determined as 0.12.
For U12G A94U, the self-cleavage was 0.24.
The result for U12G A94G reads 0.42; that for U12C C145G, 1.06; that for U12C U100C, 1.6.
Consider U12C U85C, for which the self-cleavage worked out at 0.12.
For U13C G40A, the self-cleavage was 0.91.
The result for U13C G40U reads 1.87.
Consider U13C A136U, for which the self-cleavage came to 1.18.
On to U13C A136G, for which the self-cleavage stood at 1.25.
On to U13A C19A, for which the self-cleavage was determined as 1.84.
For the variant U12G U112C, the self-cleavage is 1.01.
With U12C G33U, the self-cleavage was determined as 1.36.
With U12C G33C, the self-cleavage came to 1.28.
For the variant U13A U134C, the self-cleavage amounted to 0.85.
On to U13C A117G, for which the self-cleavage worked out at 1.02.
As to U13C A117U, the self-cleavage came out at 1.07.
Consider U13A U46A, for which the self-cleavage was 1.21.
Take U13A A67U: the self-cleavage was 0.07.
Regarding U13A A67G, the self-cleavage stood at 0.22.
U13A C128U: the self-cleavage stood at 1.61.
U12C U87C: the self-cleavage turned out to be 0.21.
For U12G U132C, the self-cleavage was determined as 1.02.
The same measure for U12G U132A: 0.66; for U12C C90U: 0.04; for U12G C98U: 0.41.
In the case of U12G G40A, the self-cleavage worked out at 1.41.
The result for U13A C63U reads 0.35.
In the case of U12G A64G, the self-cleavage came to 0.52.
The result for U12G A64C reads 0.55; that for U13C G144A, 1.91; that for U13A U108C, 1.02.
U12C U14G: the self-cleavage was determined as 0.59.
In the case of U12C U14A, the self-cleavage was 0.81.
U12G U26C: the self-cleavage was 0.57.
Regarding U12G U26A, the self-cleavage is 1.3.
The result for U12C G72U reads 1.13; that for U12G A79G, 1.25.
Take U13A A77G: the self-cleavage came to 0.46.
Turning to U13A U115C, the self-cleavage came to 1.56.
On to U13A U115G, for which the self-cleavage is 1.29.
Take U13A U130C: the self-cleavage worked out at 1.22.
Turning to U13C A94G, the self-cleavage is 0.33.
As for U12G A57G, the self-cleavage came out at 1.42.
U12C G27A: the self-cleavage came to 0.87.
In the case of U13A G126U, the self-cleavage was 1.86.
For U12G C116U, the self-cleavage stood at 0.62.
As to U12G U115A, the self-cleavage was 0.75.
With U12G U115G, the self-cleavage worked out at 0.
Regarding U12G U115C, the self-cleavage turned out to be 1.47.
Take U12C G58A: the self-cleavage worked out at 0.09.
As for U13C C90U, the self-cleavage amounted to 0.04.
For U13A A64U, the self-cleavage is 0.25.
Consider U13A A64G, for which the self-cleavage stood at 0.12.
As to U13C A30G, the self-cleavage turned out to be 0.77.
For U12C G36A, the self-cleavage worked out at 1.04.
The result for U12C C101U reads 1.02; that for U12C C101A, 1.72; that for U13C C110U, 1.43.
Turning to U12C U39C, the self-cleavage was 1.4.
U12C U39A: the self-cleavage came to 1.32.
Consider U12C U130A, for which the self-cleavage was determined as 1.49.
Turning to U13C C120U, the self-cleavage came to 1.05.
Consider U12G C19U, for which the self-cleavage was 1.09.
U13C U20G: the self-cleavage was 0.69.
For U13C U20C, the self-cleavage is 1.06.
U13C U45G: the self-cleavage came to 1.46.
With U12C C133A, the self-cleavage was 1.67.
As for U12G A92U, the self-cleavage is 0.62.
The same measure for U12G A92G: 0.21; for U12G G32A: 0.78.
The result for U13C C131A reads 1.28.
For U12C U115C, the self-cleavage was found to be 1.21.
On to U13A A142G, for which the self-cleavage was 1.2.
On to U12C C19A, for which the self-cleavage was determined as 0.85.
As for U12G U96A, the self-cleavage is 0.21.
Take U13C A67G: the self-cleavage turned out to be 0.71.
In the case of U12G A42C, the self-cleavage stood at 1.1.
The same measure for U12G U62A: 0.16; for U12G U62C: 0.14.
Consider U12G A117G, for which the self-cleavage stood at 1.35.
As to U13A A78U, the self-cleavage worked out at 1.52.
The result for U12G A50U reads 1.16.
For the variant U12G A50G, the self-cleavage came out at 1.2.
As for U12G U13C, the self-cleavage turned out to be 0.95.
U13C C17U: the self-cleavage is 1.19.
U13A G137A: the self-cleavage stood at 1.13.
As to U13C A50U, the self-cleavage stood at 0.83.
On to U13A A140G, for which the self-cleavage was 0.52.
Turning to U13C A77U, the self-cleavage amounted to 0.87.
For U13C A77C, the self-cleavage was found to be 1.15.
For U13C A77G, the self-cleavage was determined as 1.85.
In the case of U12C G54A, the self-cleavage is 0.62.
With U12C G127C, the self-cleavage came to 1.84.
The result for U13C G105A reads 1.33; that for U13A U20A, 1.15.
As to U12G A136U, the self-cleavage came out at 0.76.
U12G A59U: the self-cleavage was 1.15.
For U12G U20C, the self-cleavage turned out to be 1.02.
As for U12C U23C, the self-cleavage amounted to 1.34.
The result for U13A G40A reads 1.19.
Regarding U13C C99U, the self-cleavage came out at 0.48.
U12C U102A: the self-cleavage stood at 1.66.
As to U12C C68U, the self-cleavage worked out at 0.35.
As for U12G U46C, the self-cleavage came to 1.29.
On to U13A C145U, for which the self-cleavage was determined as 1.26.
The result for U13C A22U reads 1.22; that for U13A G125A, 0.72; that for U13A G125U, 1.03.
On to U13A G83A, for which the self-cleavage is 0.58.
Take U12G G55A: the self-cleavage came to 0.15.
For the variant U12C U47A, the self-cleavage is 0.71.
Regarding U12C U47G, the self-cleavage was found to be 1.21.
As to U13C G33U, the self-cleavage was found to be 1.64.
With U12G U91A, the self-cleavage turned out to be 0.97.
The same measure for U13C G25U: 1.52; for U12C G88A: 0.1; for U13A U23C: 1.62.
For U12C C98U, the self-cleavage was determined as 0.26.
On to U13A U85C, for which the self-cleavage turned out to be 0.13.
